According to patent publication US20200392227A1 (LYVGEN BIOPHARMA, published 2020):

T1: human FcγRIIC expressed on CHO cells (human, UniProt P31995 43-323)
T1 construct: whole, on cells
T1 sequence (looked up): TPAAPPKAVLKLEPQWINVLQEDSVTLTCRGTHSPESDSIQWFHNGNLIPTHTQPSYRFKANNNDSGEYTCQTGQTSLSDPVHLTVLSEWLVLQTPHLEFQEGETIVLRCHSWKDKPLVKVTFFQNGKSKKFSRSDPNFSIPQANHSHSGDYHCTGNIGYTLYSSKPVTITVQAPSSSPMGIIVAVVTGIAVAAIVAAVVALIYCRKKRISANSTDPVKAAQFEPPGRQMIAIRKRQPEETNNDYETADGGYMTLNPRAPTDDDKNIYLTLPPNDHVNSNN

T2: human FcRIIA protein (MednaBio, E1033) (human, UniProt P12318 34-218, limits assumed)
T2 construct: Bought; also called FcγRIIA
T2 sequence (looked up): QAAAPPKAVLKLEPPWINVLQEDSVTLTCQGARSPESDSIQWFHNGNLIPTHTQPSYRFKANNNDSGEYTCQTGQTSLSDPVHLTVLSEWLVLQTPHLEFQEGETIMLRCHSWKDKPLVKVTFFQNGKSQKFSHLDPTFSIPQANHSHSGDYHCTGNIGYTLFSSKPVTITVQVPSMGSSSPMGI

T3: human FcRIIB/C protein (MednaBio, E1034) (human, UniProt P31994 43-217, limits assumed)
T3 construct: Bought as FcRIIB/C; also called FcγRIIB; CD32B
T3 sequence (looked up): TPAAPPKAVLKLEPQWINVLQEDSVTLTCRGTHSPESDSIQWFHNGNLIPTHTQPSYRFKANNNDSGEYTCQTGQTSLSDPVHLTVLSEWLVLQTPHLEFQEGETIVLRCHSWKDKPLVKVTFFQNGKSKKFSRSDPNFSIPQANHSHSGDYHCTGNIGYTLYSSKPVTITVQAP


Tests used:
[1] = target: T4, human FcγRI expressed on CHO cells (human, UniProt P12314 16-374); test: FACS, CHO cells expressing FcγRI
T4 construct: whole, on cells
T4 sequence (P12314 16-374): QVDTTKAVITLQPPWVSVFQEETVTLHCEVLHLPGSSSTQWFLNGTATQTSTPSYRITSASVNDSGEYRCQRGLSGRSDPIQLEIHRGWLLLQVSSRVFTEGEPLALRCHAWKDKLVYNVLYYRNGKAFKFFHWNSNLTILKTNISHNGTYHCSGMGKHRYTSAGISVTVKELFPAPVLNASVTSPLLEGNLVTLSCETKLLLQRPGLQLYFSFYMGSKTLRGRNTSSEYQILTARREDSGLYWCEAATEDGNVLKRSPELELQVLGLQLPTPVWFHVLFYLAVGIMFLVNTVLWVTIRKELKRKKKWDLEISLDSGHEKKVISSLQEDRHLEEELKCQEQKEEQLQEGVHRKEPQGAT
Experimental: For FACS analysis of the IgG mutants' binding to different FcγRs, FcγR overexpressing CHO cells were harvested using trypsin-EDTA and were suspended in cold staining buffer (3% BSA in PBS). Test IgG mutants, which were diluted in staining buffer, were added into the cells. The mixture was incubated 4° C. for 2 hours, and then washed twice with cold staining buffer and re-suspended in PE-labeled anti-human IgG followed by incubation at 4° C. for 2 hours. The mixture was washed twice with staining buffer and re-suspended in 2% PFA in PBS for FACS.

[2] = target: T1, human FcγRIIC expressed on CHO cells; test: FACS, CHO cells expressing FcγRIIC
[3] = target: T5, human FcRIIIA-F158 protein (MednaBio, E1036) (human, UniProt P08637 17-208); test: BLI
T5 construct: Bought; also called FcγRIIIA(F)
T5 sequence (P08637 17-208 limits assumed): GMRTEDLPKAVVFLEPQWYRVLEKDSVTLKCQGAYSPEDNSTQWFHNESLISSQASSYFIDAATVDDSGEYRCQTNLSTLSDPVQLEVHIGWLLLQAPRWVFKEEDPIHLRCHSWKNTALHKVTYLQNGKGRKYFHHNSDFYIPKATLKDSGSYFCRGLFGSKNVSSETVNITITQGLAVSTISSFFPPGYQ
Procedure, shortened: (§1)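 On an Octet Red96 System, anti-penta-HIS biosensors loaded with commercial human Fc receptor proteins were dipped into test IgG diluted 1:3 over 8 points from 300 nM. Fcγ receptor runs used pH 7.2 and FcRn runs used pH 6. Global fitting of these biolayer interferometry data gave the values for Kd, kon and koff, using a 1:1 binding model.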

[4] = target: T6, human FcRIIIA-V158 protein (MednaBio, E1035) (human, UniProt P08637 17-208); test: BLI
T6 construct: Bought; also called FcγRIIIA(V); FcgRIIIA(V)
T6 sequence (P08637 17-208 F176V): as the sequence (P08637 17-208 limits assumed) above, with F160V counted along it
Procedure, shortened: as §1

[5] = target: T7, human FcRn protein (MednaBio, E1032) (human, UniProt P55899 24-297; P61769 21-119); test: BLI
T7 construct: Bought; assays at pH 6
T7 sequence (P55899 24-297 limits assumed, form in doubt, chain 1 of 2): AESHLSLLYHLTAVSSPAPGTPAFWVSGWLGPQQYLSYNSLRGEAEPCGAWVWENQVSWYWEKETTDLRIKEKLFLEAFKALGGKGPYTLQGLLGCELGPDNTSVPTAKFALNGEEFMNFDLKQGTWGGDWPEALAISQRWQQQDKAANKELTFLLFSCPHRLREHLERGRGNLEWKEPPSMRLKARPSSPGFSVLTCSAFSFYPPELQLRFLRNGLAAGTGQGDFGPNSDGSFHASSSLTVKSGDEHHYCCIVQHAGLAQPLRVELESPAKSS
T7 sequence (P61769 21-119 limits assumed, form in doubt, chain 2 of 2): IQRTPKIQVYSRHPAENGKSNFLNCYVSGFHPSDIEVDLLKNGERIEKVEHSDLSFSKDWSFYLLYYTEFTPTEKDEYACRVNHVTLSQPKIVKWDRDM
Procedure, shortened: as §1

[6] = target: T2, human FcRIIA protein (MednaBio, E1033); test: BLI
Procedure, shortened: as §1

[7] = target: T8, human FcRI protein (MednaBio, E1031) (human, UniProt P12314 16-288, limits assumed); test: BLI
T8 construct: Bought; loaded on anti-penta-HIS biosensors; also called FcγRI
T8 sequence (P12314 16-288 limits assumed): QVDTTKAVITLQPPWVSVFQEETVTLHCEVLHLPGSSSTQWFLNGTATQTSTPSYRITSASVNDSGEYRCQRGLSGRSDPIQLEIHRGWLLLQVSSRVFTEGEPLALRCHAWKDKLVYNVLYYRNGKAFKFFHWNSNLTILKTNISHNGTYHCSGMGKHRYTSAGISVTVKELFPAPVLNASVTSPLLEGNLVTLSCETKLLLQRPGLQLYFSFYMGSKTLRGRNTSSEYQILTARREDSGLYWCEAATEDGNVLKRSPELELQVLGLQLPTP
Procedure, shortened: as §1

[8] = target: T9, human FcRIIIB protein (MednaBio, E1037) (human, UniProt O75015 17-200); test: BLI
T9 construct: Bought; also called FcγRIIIB; FcgRIIIB
T9 sequence (O75015 17-200 limits assumed): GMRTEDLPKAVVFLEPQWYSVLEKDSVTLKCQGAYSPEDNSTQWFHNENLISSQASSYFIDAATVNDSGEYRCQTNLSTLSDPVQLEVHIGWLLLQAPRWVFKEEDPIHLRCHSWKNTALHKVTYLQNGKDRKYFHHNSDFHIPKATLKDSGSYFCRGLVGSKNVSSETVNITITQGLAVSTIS
Procedure, shortened: as §1

[9] = target: T3, human FcRIIB/C protein (MednaBio, E1034); test: BLI
Procedure, shortened: as §1

Row | Binder | binding result [1] | binding result [2] | binding result [3] | binding result [4] | Kd [5] | koff [5] | kon [5] | Kd [6] | koff [6] | kon [6] | binding result [7] | binding result [8] | Kd [9] | koff [9] | kon [9]
1 | anti-CD137 IgG2 with Fc variant G2m7 (antibody, copies: 2 + 2) heavy: EVQLVQSGAEVKKPGESLRISCKGSGYSFSTYWISWVRQMPGKGLEWMGKIYPGDSYTNYSPSFQGQVTISADKSISTAYLQWSSLKASDTAMYYCARGYGIFDYWGQGTLVTVSSASTKGPSVFPLAPCSRSTSESTAALGCLVKDYFPEPVTVSWNSGALTSGVHTFPAVLQSSGLYSLSSVVTVPSSNFGTQTYTCNVDHKPSNTKVDKTVERKCCVECPPCPAPPVAGPSVFLFPPKPKDTLMISRTPEVTCVVVDVEHEDPEVQFNWYVDGVEVHNAKTKPREEQFNSTFRVVSVLTVVHQDWLNGKEYKCKVSNKGLPAPIEKTISKTKGQPREPQVYTLPPSREEMTKNQVSLTCLVKGFYPSDIAVEWESNGQPENNYKTTPPMLDSDGSFFLYSKLTVDKSRWQQGNVFSCSVMHEALHNHYTQKSLSLSPGK light: SYELTQPPSVSVSPGQTASITCSGDNIGDQYAHWYQQKPGQSPVLVIYQDKNRPSGIPERFSGSNSGNTATLTISGTQAMDEADYYCATYTGFGSLAVFGGGTKLTVLGQPKAAPSVTLFPPSSEELQANKATLVCLISDFYPGAVTVAWKADSSPVKAGVETTTPSKQSNNKYAASSYLSLTPEQWKSHRSYSCQVTHEGSTVEKTVAPTECS | no binding (tested: 10 ug/ml) | binds | no binding (tested: 300 nM) | no binding (tested: 300 nM) | 5.7 nM | 0.0052 s⁻¹ | 910000 M⁻¹ s⁻¹ | 120 nM | 0.028 s⁻¹ | 230000 M⁻¹ s⁻¹ | no binding (tested: 300 nM) | no binding (tested: 300 nM) | 170 nM | 0.052 s⁻¹ | 310000 M⁻¹ s⁻¹
2 | anti-CD137 IgG2 with Fc variant G2m8 (antibody, copies: 2 + 2) heavy: EVQLVQSGAEVKKPGESLRISCKGSGYSFSTYWISWVRQMPGKGLEWMGKIYPGDSYTNYSPSFQGQVTISADKSISTAYLQWSSLKASDTAMYYCARGYGIFDYWGQGTLVTVSSASTKGPSVFPLAPCSRSTSESTAALGCLVKDYFPEPVTVSWNSGALTSGVHTFPAVLQSSGLYSLSSVVTVPSSNFGTQTYTCNVDHKPSNTKVDKTVERKCCVECPPCPAPPVAGPSVFLFPPKPKDTLMISRTPEVTCVVVDVSHEDPEVQFNWYVDGVEVHNAKTKPREEQFNSTFRVVSVLTVVHQDWLNGKEYKCKVSNKGFPAPIEKTISKTKGQPREPQVYTLPPSREEMTKNQVSLTCLVKGFYPSDIAVEWESNGQPENNYKTTPPMLDSDGSFFLYSKLTVDKSRWQQGNVFSCSVMHEALHNHYTQKSLSLSPGK light: SYELTQPPSVSVSPGQTASITCSGDNIGDQYAHWYQQKPGQSPVLVIYQDKNRPSGIPERFSGSNSGNTATLTISGTQAMDEADYYCATYTGFGSLAVFGGGTKLTVLGQPKAAPSVTLFPPSSEELQANKATLVCLISDFYPGAVTVAWKADSSPVKAGVETTTPSKQSNNKYAASSYLSLTPEQWKSHRSYSCQVTHEGSTVEKTVAPTECS | no binding (tested: 10 ug/ml) |  | no binding (tested: 300 nM) | no binding (tested: 300 nM) | 6.3 nM | 0.0053 s⁻¹ | 850000 M⁻¹ s⁻¹ | 93 nM | 0.092 s⁻¹ | 990000 M⁻¹ s⁻¹ | no binding (tested: 300 nM) | no binding (tested: 300 nM) | 500 nM | 0.26 s⁻¹ | 510000 M⁻¹ s⁻¹
3 | anti-CD137 IgG2 with Fc variant G2m9 (antibody, copies: 2 + 2) heavy: EVQLVQSGAEVKKPGESLRISCKGSGYSFSTYWISWVRQMPGKGLEWMGKIYPGDSYTNYSPSFQGQVTISADKSISTAYLQWSSLKASDTAMYYCARGYGIFDYWGQGTLVTVSSASTKGPSVFPLAPCSRSTSESTAALGCLVKDYFPEPVTVSWNSGALTSGVHTFPAVLQSSGLYSLSSVVTVPSSNFGTQTYTCNVDHKPSNTKVDKTVERKCCVECPPCPAPPVAGPSVFLFPPKPKDTLMISRTPEVTCVVVDVEHEDPEVQFNWYVDGVEVHNAKTKPREEQFNSTFRVVSVLTVVHQDWLNGKEYKCKVSNKGFPAPIEKTISKTKGQPREPQVYTLPPSREEMTKNQVSLTCLVKGFYPSDIAVEWESNGQPENNYKTTPPMLDSDGSFFLYSKLTVDKSRWQQGNVFSCSVMHEALHNHYTQKSLSLSPGK light: SYELTQPPSVSVSPGQTASITCSGDNIGDQYAHWYQQKPGQSPVLVIYQDKNRPSGIPERFSGSNSGNTATLTISGTQAMDEADYYCATYTGFGSLAVFGGGTKLTVLGQPKAAPSVTLFPPSSEELQANKATLVCLISDFYPGAVTVAWKADSSPVKAGVETTTPSKQSNNKYAASSYLSLTPEQWKSHRSYSCQVTHEGSTVEKTVAPTECS |  | binds | no binding (tested: 300 nM) | no binding (tested: 300 nM) | 22 nM | 0.0058 s⁻¹ | 270000 M⁻¹ s⁻¹ | 280 nM | 0.03 s⁻¹ | 110000 M⁻¹ s⁻¹ | no binding (tested: 300 nM) | no binding (tested: 300 nM) | 52 nM | 0.005 s⁻¹ | 97000 M⁻¹ s⁻¹
